Experimental data: patent publication US20250163145A1 (SHIONOGI, published 2025)
Positions count from the first letter of the chain named. Names may count otherwise. Where no end group is shown, it is not given here.

T1: epitope peptide Cys-CE3C long (also: biotin label, site not given here)
T1 peptide: CSVNVDKQPKYEYSL

B1: humanized 15H11 CDR graft IGKV7-3 / IGHV7-4-1 (R94P) (antibody, human IgG4 S228P, kappa, V domains shown)
VH: QVQLVQSGSELKKPGASVKVSCKASGYTFTDYNMHWVRQAPGQGLEWMGRINPKNGVINSNEKFKDRFVFSLDTSVSTAYLQISSLKAEDTAVYYCAPSYYGGNTDAYWGQGTLVTVSS
VL: DIVLTQSPASLAVSPGQRATITCRASESVDNYGISFMNWYQQKPGQPPKLLIYAASSQGSGVPARFSGSGSGTDFTLTINPVEANDTANYYCQQSKEFPWTFGGGTKVEIKR
notes: hIgG4Pro/hIgK
B2: humanized 15H11 CDR graft IGKV4-1 / IGHV7-4-1 (R94P) (antibody, human IgG4 S228P, kappa, V domains shown)
VH: B1 VH
VL: DIVMTQSPDSLAVSLGERATINCRASESVDNYGISFMNWYQQKPGQPPKLLIYAASSQGSGVPDRFSGSGSGTDFTLTISSLQAEDVAVYYCQQSKEFPWTFGGGTKVEIKR
notes: hIgG4Pro/hIgK
B3: humanized 15H11 CDR graft IGKV3-11 / IGHV7-4-1 (R94P) (antibody, human IgG4 S228P, kappa, V domains shown)
VH: B1 VH
VL: EIVLTQSPATLSLSPGERATLSCRASESVDNYGISFMNWYQQKPGQAPRLLIYAASSQGSGIPARFSGSGSGTDFTLTISSLEPEDFAVYYCQQSKEFPWTFGGGTKVEIKR
notes: hIgG4Pro/hIgK
B4: humanized 15H11 CDR graft IGKV3-20 / IGHV7-4-1 (R94P) (antibody, human IgG4 S228P, kappa, V domains shown)
VH: B1 VH
VL: B3 VL with S81R
notes: hIgG4Pro/hIgK
B5: humanized 15H11 CDR graft IGKV1-39 / IGHV1-2 (R94P) (antibody, human IgG4 S228P, kappa, V domains shown)
VH: QVQLVQSGAEVKKPGASVKVSCKASGYTFTDYNMHWVRQAPGQGLEWMGRINPKNGVINSNEKFKDRVTMTRDTSISTAYMELSRLRSDDTAVYYCAPSYYGGNTDAYWGQGTLVTVSS
VL: DIQMTQSPSSLSASVGDRVTITCRASESVDNYGISFMNWYQQKPGKAPKLLIYAASSQGSGVPSRFSGSGSGTDFTLTISSLQPEDFATYYCQQSKEFPWTFGGGTKVEIKR
notes: hIgG4Pro/hIgK
B6: humanized 15H11 CDR graft IGKV4-1 / IGHV1-2 (R94P) (antibody, human IgG4 S228P, kappa, V domains shown)
VH: B5 VH
VL: B2 VL
notes: hIgG4Pro/hIgK
B7: humanized 15H11 CDR graft IGKV3-11 / IGHV1-2 (R94P) (antibody, human IgG4 S228P, kappa, V domains shown)
VH: B5 VH
VL: B3 VL
notes: hIgG4Pro/hIgK
B8: humanized 15H11 CDR graft IGKV1-39 / IGHV7-4-1 (R94P) (antibody, human IgG4 S228P, kappa, V domains shown)
VH: B1 VH
VL: B5 VL
notes: hIgG4Pro/hIgK
B9: humanized 15H11 CDR graft IGKV3-20 / IGHV1-2 (R94P) (antibody, human IgG4 S228P, kappa, V domains shown)
VH: B5 VH
VL: B3 VL with S81R
notes: hIgG4Pro/hIgK
B10: humanized 15H11 CDR graft IGKV7-3 / IGHV1-46 (R94P) (antibody, human IgG4 S228P, kappa, V domains shown)
VH: B5 VH with I76T, A79V, R85S, D89E
VL: B1 VL
notes: hIgG4Pro/hIgK
B11: humanized 15H11 CDR graft IGKV4-1 / IGHV1-2 (antibody, human IgG4 S228P, kappa, V domains shown)
VH: B5 VH with P98R
VL: B2 VL
notes: hIgG4Pro/hIgK
B12: humanized 15H11 CDR graft IGKV4-1 / IGHV1-3 (R94P) (antibody, human IgG4 S228P, kappa, V domains shown)
VH: B5 VH with G44R, M70I, I76A, R85S, D89E
VL: B2 VL
notes: hIgG4Pro/hIgK
B13: humanized 15H11 CDR graft IGKV1-39 / IGHV1-46 (R94P) (antibody, human IgG4 S228P, kappa, V domains shown)
VH: B5 VH with I76T, A79V, R85S, D89E
VL: B5 VL
notes: hIgG4Pro/hIgK
B14: humanized 15H11 CDR graft IGKV3-20 / IGHV1-18 (R94P) (antibody, human IgG4 S228P, kappa, V domains shown)
VH: B5 VH with R72T, I76T, S84R, R85S
VL: B3 VL with S81R
notes: hIgG4Pro/hIgK
B15: humanized 15H11 CDR graft IGKV3-20 / IGHV1-46 (R94P) (antibody, human IgG4 S228P, kappa, V domains shown)
VH: B5 VH with I76T, A79V, R85S, D89E
VL: B3 VL with S81R
notes: hIgG4Pro/hIgK
B16: humanized 15H11 CDR graft IGKV1-39 / IGHV1-18 (R94P) (antibody, human IgG4 S228P, kappa, V domains shown)
VH: B5 VH with R72T, I76T, S84R, R85S
VL: B5 VL
notes: hIgG4Pro/hIgK
B17: humanized 15H11 CDR graft IGKV4-1 / IGHV1-46 (R94P) (antibody, human IgG4 S228P, kappa, V domains shown)
VH: B5 VH with I76T, A79V, R85S, D89E
VL: B2 VL
notes: hIgG4Pro/hIgK
B18: humanized 15H11 CDR graft IGKV4-1 / IGHV1-18 (R94P) (antibody, human IgG4 S228P, kappa, V domains shown)
VH: B5 VH with R72T, I76T, S84R, R85S
VL: B2 VL
notes: hIgG4Pro/hIgK
B19: humanized 15H11 CDR graft IGKV3-11 / IGHV1-18 (R94P) (antibody, human IgG4 S228P, kappa, V domains shown)
VH: B5 VH with R72T, I76T, S84R, R85S
VL: B3 VL
notes: hIgG4Pro/hIgK
B20: humanized 15H11 CDR graft IGKV7-3 / IGHV1-2 (R94P) (antibody, human IgG4 S228P, kappa, V domains shown)
VH: B5 VH
VL: B1 VL
notes: hIgG4Pro/hIgK
B21: humanized 15H11 CDR graft IGKV3-20 / IGHV1-2 (antibody, human IgG4 S228P, kappa, V domains shown)
VH: B5 VH with P98R
VL: B3 VL with S81R
notes: hIgG4Pro/hIgK
B22: humanized 15H11 CDR graft IGKV7-3 / IGHV1-2 (antibody, human IgG4 S228P, kappa, V domains shown)
VH: B5 VH with P98R
VL: B1 VL
notes: hIgG4Pro/hIgK
B23: humanized 15H11 CDR graft IGKV7-3 / IGHV1-18 (R94P) (antibody, human IgG4 S228P, kappa, V domains shown)
VH: B5 VH with R72T, I76T, S84R, R85S
VL: B1 VL
notes: hIgG4Pro/hIgK
B24: humanized 15H11 CDR graft IGKV7-3 / IGHV1-3 (R94P) (antibody, human IgG4 S228P, kappa, V domains shown)
VH: B5 VH with G44R, M70I, I76A, R85S, D89E
VL: B1 VL
notes: hIgG4Pro/hIgK
B25: humanized 15H11 CDR graft IGKV3-11 / IGHV1-2 (antibody, human IgG4 S228P, kappa, V domains shown)
VH: B5 VH with P98R
VL: B3 VL
notes: hIgG4Pro/hIgK
B26: humanized 15H11 CDR graft IGKV1-39 / IGHV1-3 (R94P) (antibody, human IgG4 S228P, kappa, V domains shown)
VH: B5 VH with G44R, M70I, I76A, R85S, D89E
VL: B5 VL
notes: hIgG4Pro/hIgK
B27: humanized 15H11 CDR graft IGKV3-11 / IGHV1-3 (R94P) (antibody, human IgG4 S228P, kappa, V domains shown)
VH: B5 VH with G44R, M70I, I76A, R85S, D89E
VL: B3 VL
notes: hIgG4Pro/hIgK
B28: humanized 15H11 CDR graft IGKV3-20 / IGHV1-3 (R94P) (antibody, human IgG4 S228P, kappa, V domains shown)
VH: B5 VH with G44R, M70I, I76A, R85S, D89E
VL: B3 VL with S81R
notes: hIgG4Pro/hIgK
B29: humanized 15H11 CDR graft IGKV3-11 / IGHV1-46 (R94P) (antibody, human IgG4 S228P, kappa, V domains shown)
VH: B5 VH with I76T, A79V, R85S, D89E
VL: B3 VL
notes: hIgG4Pro/hIgK
B30: humanized 15H11 CDR graft IGKV1-39 / IGHV1-2 (antibody, human IgG4 S228P, kappa, V domains shown)
VH: B5 VH with P98R
VL: B5 VL
notes: hIgG4Pro/hIgK

Molecular target: T1, epitope peptide Cys-CE3C long
Assay: ELISA, supernatant IgG on anti-human IgG plate, biotin-peptide + streptavidin-HRP; titer per unit IgG
Description: The amount of IgG in the supernatant was determined by the following method. To evaluate the amount of IgG in the supernatant, the culture supernatant was added to an anti-human IgG antibody (manufactured by Jackson) immobilized plate, after reacting at room temperature for 3 hours, washed twice with ELISA wash buffer, and HRP-labeled anti-human IgG antibody (manufactured by Jackson) was reacted at 4° C. overnight. After washing twice with ELISA wash buffer and developing color by adding TMB-Substrate Chromogen (manufactured by Thermo Fisher Scientific), the reaction was stopped with an equal volume of 0.5N sulfuric acid, and the absorbance at 450 nm was measured to calculate (A) the dilution factor of the culture supernatant at which the OD was 1.0.
The titer of IgG in the supernatant against the epitope peptide was determined by the following method. In order to evaluate the titer of IgG in the supernatant against epitope peptides, the culture supernatant was added to an anti-human IgG antibody (manufactured by Jackson) immobilized plate, reacted for 3 hours at room temperature, and then washed twice with ELISA wash buffer, and a biotin-labeled epitope peptide (Cys-CE3C long: SEQ ID NO: 13) and Streptavidin-HRP (manufactured by PIERCE) were added and reacted overnight at 4° C. After washing twice with ELISA wash buffer and developing color by adding TMB-Substrate Chromogen (manufactured by Thermo Fisher Scientific), the reaction was stopped with an equal volume of 0.5N sulfuric acid, the absorbance at 450 nm was measured to calculate (B) the dilution ratio of the culture supernatant at which the OD was 1.0.
The titer (ratio) against the epitope peptide (Cys-CE3C long: SEQ ID NO: 13) per unit IgG amount was calculated as (B)/(A).

| (B)/(A) titer (ratio) against the epitope peptide per unit IgG amount | Binder |
| --- | --- |
| 0.26 | B1 |
| 0.21 | B2 |
| 0.18 | B3 |
| 0.15 | B4 |
| 0.14 | B5 |
| 0.18 | B6 |
| 0.15 | B7 |
| 0.16 | B8 |
| 0.12 | B9 |
| 0.18 | B10 |
| 0.03 | B11 |
| 0.15 | B12 |
| 0.09 | B13 |
| 0.13 | B14 |
| 0.09 | B15 |
| 0.13 | B16 |
| 0.13 | B17 |
| 0.13 | B18 |
| 0.15 | B19 |
| 0.22 | B20 |
| 0.04 | B21 |
| 0.04 | B22 |
| 0.24 | B23 |
| 0.21 | B24 |
| 0.05 | B25 |
| 0.12 | B26 |
| 0.12 | B27 |
| 0.12 | B28 |
| 0.12 | B29 |
| 0.03 | B30 |
